Paper PMC8563363 (Cell, 2021)

Target: T1, SMC1 (human, UniProt Q14683 1-1233)
T1 sequence: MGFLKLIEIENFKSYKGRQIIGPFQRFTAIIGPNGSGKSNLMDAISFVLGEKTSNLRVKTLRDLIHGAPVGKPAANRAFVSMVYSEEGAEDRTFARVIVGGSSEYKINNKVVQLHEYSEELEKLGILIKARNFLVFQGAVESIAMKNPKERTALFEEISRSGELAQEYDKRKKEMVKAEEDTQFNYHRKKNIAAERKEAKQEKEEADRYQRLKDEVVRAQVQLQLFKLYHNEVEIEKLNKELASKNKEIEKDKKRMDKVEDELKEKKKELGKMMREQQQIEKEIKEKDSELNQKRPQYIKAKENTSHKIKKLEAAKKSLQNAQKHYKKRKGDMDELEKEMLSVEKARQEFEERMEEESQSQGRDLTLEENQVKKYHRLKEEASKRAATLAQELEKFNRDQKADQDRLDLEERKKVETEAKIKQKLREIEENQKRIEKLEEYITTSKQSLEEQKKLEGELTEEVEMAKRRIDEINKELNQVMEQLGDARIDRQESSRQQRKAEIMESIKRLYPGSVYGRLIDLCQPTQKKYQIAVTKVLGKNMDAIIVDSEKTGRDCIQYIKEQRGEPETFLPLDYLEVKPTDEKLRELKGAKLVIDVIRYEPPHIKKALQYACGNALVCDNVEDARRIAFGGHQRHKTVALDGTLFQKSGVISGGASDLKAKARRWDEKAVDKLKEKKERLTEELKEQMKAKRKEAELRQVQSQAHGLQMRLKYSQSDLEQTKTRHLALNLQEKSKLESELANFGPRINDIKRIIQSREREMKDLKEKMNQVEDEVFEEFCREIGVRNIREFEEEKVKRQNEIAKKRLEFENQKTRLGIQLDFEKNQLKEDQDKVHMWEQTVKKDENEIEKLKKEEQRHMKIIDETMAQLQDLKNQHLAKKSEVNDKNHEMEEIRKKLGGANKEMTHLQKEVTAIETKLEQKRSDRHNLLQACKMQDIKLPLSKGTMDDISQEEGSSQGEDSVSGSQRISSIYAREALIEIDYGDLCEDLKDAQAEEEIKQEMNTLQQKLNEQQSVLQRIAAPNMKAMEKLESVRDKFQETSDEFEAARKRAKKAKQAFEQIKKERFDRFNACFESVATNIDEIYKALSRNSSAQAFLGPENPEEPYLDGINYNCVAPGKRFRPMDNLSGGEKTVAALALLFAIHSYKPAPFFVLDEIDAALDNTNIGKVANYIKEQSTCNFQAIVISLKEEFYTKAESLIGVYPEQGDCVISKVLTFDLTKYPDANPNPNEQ
Test: mass photometry

B1: SMC3 with a C-terminal Flag tag (natural protein)
chain: MYIKQVIIQGFRSYRDQTIVDPFSSKHNVIVGRNGSGKSNFFYAIQFVLSDEFSHLRPEQRLALLHEGTGPRVISAFVEIIFDNSDNRLPIDKEEVSLRRVIGAKKDQYFLDKKMVTKNDVMNLLESAGFSRSNPYYIVKQGKINQMATAPDSQRLKLLREVAGTRVYDERKEESISLMKETEGKREKINELLKYIEERLHTLEEEKEELAQYQKWDKMRRALEYTIYNQELNETRAKLDELSAKRETSGEKSRQLRDAQQDARDKMEDIERQVRELKTKISAMKEEKEQLSAERQEQIKQRTKLELKAKDLQDELAGNSEQRKRLLKERQKLLEKIEEKQKELAETEPKFNSVKEKEERGIARLAQATQERTDLYAKQGRGSQFTSKEERDKWIKKELKSLDQAINDKKRQIAAIHKDLEDTEANKEKNLEQYNKLDQDLNEVKARVEELDRKYYEVKNKKDELQSERNYLWREENAEQQALAAKREDLEKKQQLLRAATGKAILNGIDSINKVLDHFRRKGINQHVQNGYHGIVMNNFECEPAFYTCVEVTAGNRLFYHIVDSDEVSTKILMEFNKMNLPGEVTFLPLNKLDVRDTAYPETNDAIPMISKLRYNPRFDKAFKHVFGKTLICRSMEVSTQLARAFTMDCITLEGDQVSHRGALTGGYYDTRKSRLELQKDVRKAEEELGELEAKLNENLRRNIERINNEIDQLMNQMQQIETQQRKFKASRDSILSEMKMLKEKRQQSEKTFMPKQRSLQSLEASLHAMESTRESLKAELGTDLLSQLSLEDQKRVDALNDEIRQLQQENRQLLNERIKLEGIITRVETYLNENLRKRLDQVEQELNELRETEGGTVLTATTSELEAINKRVKDTMARSEDLDNSIDKTEAGIKELQKSMERWKNMEKEHMDAINHDTKELEKMTNRQGMLLKKKEECMKKIRELGSLPQEAFEKYQTLSLKQLFRKLEQCNTELKKYSHVNKKALDQFVNFSEQKEKLIKRQEELDRGYKSIMELMNVLELRKYEAIQLTFKQVSKNFSEVFQKLVPGGKATLVMKKGDVEGSQSQDEGEGSGESERGSGSQSSVPSVDQFTGVGIRVSFTGKQGEMREMQQLSGGQKSLVALALIFAIQKCDPAPFYLFDEIDQALDAQHRKAVSDMIMELAVHAQFITTTFRPELLESADKFYGVKFRNKVSHIDVITAEMAKDFVEDDTTHG
- binding result: binds
